Source: publication PMC4639866

Molecular target: GST::BubR1 [1–337] (Drosophila)
Assay: pull-down

decrease of in vitro binding efficiency against wild-type Fzy: 50%
B1: GFP::Fzy-DYY* (natural protein)
chain: MSQFNFVSDLQNALIMDGETRGPAPRWKKKLEASLNGSVNTTRSVLSVSYNTSFSGVQAPTKTPGKSSEGKTKKSNTTPSKTPGGGDRFIPNRAATNFELAHFLVNKDSGDKSDEENDKATSSNSNESNVQASAHKGDRQKLISEVAQVGDSKGGRILCYQNKAPAAPETHNNPLKVVYSIKTPISTKSGSRYIPTTSERILDAPDFINAAALNLMDWSADNIVAVALGSCVYLWNAQTGNIEQLTEFEEGDYAGSLSWIQEGQILAIGNSTGAVELWDCSKVKRLRVMDGHSARVGSLAWNSFLVSSGSRDGTIVHHDVRAREHKLSTLSGHTQEVCGLKWSTDFKYLASGGNDNLVNVWSAASGGVGTATDPLHKFNDHQAAVRALAWCPWQPSTLASGGGTADRCIKFWNVNNGTLMKSVDSKSQVCSLLFSRHYKELISAHGFANNQLTIWKYPTMVKQADLTGHTSRVLQMAMSPDGSTVISAGADETLRLWNCFAPDPLASKKAVSTSKGKQSVFRQSIR
